Seven substances from PMC2928003 can be followed below.

Several values for one entry are separate records, joined by “and”; a condition that tells them apart may be missing. Equal entries are not always repeated.

Assay [1] deals with nonmuscle myosin IIB (rat (endogenous in PC12 and rat brain)) (UniProt Q9JLT0). Briefly: co-IP.
Assay [2] addresses nonmuscle myosin IIA (mouse (endogenous in NIH3T3)) (UniProt Q8VDD5). Briefly: co-IP.
For assay [3], the target named is nonmuscle myosin IIB (mouse (endogenous in NIH3T3)) (UniProt Q61879). Briefly: co-IP.
The target in the next assay is the DH–PH domains. Nature of the assay: pull-down.
In assay [4] the target is Tiam1 DH–PH domain (aa 1048–1406), His-tagged (UniProt Q60610). Briefly: SPR. For orientation: Surface plasmon resonance follows binding to a sensor surface in real time, without labels.
For assay [5], the target named is Vav1 DH–PH domain (aa 195–508), His-tagged (UniProt P15498). Nature of the assay: SPR.
The target of assay [6] is βPIX DH–PH domain (aa 100–400), His-tagged (UniProt O55043). Briefly: SPR.
βPIX DH–PH domain (aa 100–400), His-tagged, sequence (O55043 100-400): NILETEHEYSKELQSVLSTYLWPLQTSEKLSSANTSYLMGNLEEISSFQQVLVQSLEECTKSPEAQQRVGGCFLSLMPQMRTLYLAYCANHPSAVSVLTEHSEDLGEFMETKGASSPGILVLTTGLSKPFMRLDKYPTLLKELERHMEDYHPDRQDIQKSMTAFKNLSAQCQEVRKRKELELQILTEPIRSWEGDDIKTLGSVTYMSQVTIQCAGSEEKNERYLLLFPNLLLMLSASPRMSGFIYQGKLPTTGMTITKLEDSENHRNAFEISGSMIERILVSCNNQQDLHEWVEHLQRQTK

nonmuscle myosin IIB (rat (endogenous in PC12 and rat brain)), sequence (Q9JLT0 whole entry): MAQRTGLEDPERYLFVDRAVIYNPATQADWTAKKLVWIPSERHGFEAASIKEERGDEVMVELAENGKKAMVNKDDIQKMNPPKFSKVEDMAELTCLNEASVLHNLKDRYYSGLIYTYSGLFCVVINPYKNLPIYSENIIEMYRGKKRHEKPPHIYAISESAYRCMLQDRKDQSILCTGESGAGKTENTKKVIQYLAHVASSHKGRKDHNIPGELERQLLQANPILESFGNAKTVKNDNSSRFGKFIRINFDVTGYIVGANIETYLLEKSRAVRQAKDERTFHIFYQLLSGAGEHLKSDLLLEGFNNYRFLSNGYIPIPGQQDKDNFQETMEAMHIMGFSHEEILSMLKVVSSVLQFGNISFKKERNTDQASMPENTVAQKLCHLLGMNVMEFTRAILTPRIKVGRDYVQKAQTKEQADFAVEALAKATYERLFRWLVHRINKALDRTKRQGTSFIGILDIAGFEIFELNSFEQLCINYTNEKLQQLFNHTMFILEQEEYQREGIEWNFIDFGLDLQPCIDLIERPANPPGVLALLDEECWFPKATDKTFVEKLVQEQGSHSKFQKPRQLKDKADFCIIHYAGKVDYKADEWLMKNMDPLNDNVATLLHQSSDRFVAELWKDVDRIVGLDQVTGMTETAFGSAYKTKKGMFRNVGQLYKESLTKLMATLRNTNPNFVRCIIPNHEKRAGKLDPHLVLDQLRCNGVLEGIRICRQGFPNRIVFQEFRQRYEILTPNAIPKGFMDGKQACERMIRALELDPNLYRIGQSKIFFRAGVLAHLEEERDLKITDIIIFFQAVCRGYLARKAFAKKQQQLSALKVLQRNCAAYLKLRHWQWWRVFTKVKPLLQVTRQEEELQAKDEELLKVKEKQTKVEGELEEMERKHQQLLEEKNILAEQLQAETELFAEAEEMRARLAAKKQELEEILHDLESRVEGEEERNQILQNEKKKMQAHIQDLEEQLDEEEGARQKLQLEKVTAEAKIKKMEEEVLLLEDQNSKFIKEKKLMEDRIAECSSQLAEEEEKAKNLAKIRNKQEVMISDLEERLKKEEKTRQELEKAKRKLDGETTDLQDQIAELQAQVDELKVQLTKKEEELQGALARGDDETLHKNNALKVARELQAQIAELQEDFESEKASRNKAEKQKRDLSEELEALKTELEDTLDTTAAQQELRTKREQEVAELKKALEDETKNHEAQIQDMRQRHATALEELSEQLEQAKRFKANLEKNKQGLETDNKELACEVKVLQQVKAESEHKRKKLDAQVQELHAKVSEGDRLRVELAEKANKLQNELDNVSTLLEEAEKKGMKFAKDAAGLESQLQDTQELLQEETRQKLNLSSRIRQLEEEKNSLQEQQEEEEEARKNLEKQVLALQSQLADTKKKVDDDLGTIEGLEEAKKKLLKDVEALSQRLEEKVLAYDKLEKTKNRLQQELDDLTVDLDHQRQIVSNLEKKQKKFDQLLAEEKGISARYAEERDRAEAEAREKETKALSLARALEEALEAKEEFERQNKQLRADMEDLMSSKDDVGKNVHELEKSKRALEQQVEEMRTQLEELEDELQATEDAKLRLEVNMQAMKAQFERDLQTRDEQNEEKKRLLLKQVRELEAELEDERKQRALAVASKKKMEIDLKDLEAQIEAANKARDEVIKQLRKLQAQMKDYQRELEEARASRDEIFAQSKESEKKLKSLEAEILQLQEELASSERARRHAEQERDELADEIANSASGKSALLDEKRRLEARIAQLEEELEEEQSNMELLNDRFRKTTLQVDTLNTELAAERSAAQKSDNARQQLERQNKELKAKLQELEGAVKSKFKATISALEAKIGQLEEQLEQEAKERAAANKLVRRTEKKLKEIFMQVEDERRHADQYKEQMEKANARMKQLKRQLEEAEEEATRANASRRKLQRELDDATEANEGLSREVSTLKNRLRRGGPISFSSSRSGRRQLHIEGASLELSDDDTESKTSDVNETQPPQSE
nonmuscle myosin IIB (mouse (endogenous in NIH3T3)), sequence (Q61879 whole entry, the tested form may be a part): as the sequence (Q9JLT0 whole entry) above, with K150M, K170E, T452A, N652T, G933E, M1304I, G1389S, E1969D counted along it
Vav1 DH–PH domain (aa 195–508), His-tagged, sequence (P15498 195-508): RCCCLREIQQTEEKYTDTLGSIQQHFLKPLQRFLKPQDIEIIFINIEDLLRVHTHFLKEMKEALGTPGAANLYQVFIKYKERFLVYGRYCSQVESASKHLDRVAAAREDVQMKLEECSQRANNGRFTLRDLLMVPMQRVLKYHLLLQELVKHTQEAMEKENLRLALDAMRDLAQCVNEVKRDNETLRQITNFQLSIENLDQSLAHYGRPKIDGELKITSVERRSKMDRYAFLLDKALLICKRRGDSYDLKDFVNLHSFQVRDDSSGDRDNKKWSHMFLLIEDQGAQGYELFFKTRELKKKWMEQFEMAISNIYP
Tiam1 DH–PH domain (aa 1048–1406), His-tagged, sequence (Q60610 1048-1406): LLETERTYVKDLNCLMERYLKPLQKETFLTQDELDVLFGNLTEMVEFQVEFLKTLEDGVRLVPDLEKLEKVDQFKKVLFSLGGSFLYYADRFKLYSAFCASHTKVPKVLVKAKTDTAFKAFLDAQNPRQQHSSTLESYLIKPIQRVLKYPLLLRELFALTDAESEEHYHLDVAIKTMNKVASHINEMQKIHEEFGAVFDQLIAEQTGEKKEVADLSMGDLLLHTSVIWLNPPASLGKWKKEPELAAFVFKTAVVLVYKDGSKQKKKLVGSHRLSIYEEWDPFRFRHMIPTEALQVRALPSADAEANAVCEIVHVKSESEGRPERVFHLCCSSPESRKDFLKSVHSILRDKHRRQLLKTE
nonmuscle myosin IIA (mouse (endogenous in NIH3T3)), sequence (Q8VDD5 whole entry): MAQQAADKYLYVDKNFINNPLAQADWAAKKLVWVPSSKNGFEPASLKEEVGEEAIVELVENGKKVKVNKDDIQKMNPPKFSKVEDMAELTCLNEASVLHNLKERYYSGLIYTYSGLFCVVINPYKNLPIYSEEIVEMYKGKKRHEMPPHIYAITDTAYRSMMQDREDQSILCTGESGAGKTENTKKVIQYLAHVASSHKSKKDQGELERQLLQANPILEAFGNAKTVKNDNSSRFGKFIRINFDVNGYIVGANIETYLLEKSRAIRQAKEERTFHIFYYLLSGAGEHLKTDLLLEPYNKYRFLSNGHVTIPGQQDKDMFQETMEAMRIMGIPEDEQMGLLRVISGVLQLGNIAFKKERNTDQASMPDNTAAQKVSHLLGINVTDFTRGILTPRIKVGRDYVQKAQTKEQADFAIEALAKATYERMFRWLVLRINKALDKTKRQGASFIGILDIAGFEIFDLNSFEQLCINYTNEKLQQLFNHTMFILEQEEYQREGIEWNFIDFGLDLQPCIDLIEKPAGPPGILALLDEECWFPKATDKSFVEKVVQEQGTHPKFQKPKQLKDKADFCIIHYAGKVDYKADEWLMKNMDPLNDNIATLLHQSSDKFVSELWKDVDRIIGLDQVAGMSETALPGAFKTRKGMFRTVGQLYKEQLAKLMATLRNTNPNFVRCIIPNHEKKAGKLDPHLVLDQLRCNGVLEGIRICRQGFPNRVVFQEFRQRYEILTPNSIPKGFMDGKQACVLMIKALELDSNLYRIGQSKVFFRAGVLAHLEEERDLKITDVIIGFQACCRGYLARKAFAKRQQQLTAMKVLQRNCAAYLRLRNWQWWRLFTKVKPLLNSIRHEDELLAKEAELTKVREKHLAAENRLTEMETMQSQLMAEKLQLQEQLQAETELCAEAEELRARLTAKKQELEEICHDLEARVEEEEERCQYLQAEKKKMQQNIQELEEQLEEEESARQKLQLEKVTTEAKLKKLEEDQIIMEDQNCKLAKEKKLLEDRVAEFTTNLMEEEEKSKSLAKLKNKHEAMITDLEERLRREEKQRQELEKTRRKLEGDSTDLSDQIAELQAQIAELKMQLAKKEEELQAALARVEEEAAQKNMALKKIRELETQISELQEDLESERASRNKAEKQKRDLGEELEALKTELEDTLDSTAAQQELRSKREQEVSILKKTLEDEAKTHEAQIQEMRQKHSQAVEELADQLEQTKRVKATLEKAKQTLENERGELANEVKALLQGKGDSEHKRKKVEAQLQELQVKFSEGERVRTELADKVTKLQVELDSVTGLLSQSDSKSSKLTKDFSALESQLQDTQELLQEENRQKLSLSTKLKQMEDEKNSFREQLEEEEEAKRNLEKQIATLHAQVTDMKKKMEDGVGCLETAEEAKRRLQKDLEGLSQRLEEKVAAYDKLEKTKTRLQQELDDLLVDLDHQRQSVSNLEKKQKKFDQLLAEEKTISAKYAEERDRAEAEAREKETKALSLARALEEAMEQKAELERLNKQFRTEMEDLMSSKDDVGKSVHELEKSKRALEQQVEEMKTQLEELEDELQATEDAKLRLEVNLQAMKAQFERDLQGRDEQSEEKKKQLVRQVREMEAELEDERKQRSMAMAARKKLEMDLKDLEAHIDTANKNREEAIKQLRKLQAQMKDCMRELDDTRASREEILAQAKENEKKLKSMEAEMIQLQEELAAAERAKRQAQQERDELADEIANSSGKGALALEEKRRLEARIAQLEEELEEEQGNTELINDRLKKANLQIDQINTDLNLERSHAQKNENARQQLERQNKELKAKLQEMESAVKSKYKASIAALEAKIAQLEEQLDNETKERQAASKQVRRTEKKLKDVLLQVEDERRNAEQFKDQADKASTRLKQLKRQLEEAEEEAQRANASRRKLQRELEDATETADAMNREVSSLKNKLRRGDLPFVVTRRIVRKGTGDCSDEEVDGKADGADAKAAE

In assay [1], “kalirin, P97924 1-2959 (natural protein)” came in with a percent of the GEF of the lysate found in the MIIB IP of 5.6%.
Trio, Q0KL02 1-3102 (natural protein) yielded a percent of the GEF of the lysate found in the MIIA IP in assay [2] of 10.7%. Moreover, the percent of the GEF of the lysate found in the MIIB IP in assay [3] was 8.7%.
As to Tiam1 (natural protein), the percent of the GEF of the lysate found in the MIIB IP in assay [1] came out at 1.6%.
Take Dbl (natural protein): the percent of the GEF of the lysate found in the MIIB IP in assay [3] was 1.3%.
A word on the Kd: it is the constant that tells how readily two partners part at equilibrium. Consider “skeletal muscle myosin II (from UniProt Q28641 1-1938; P02602 1-192; P02608 1-170) (complex)”, for which the fold of association with F-actin over without F-actin with the DH–PH domains was 2 fold and 4 fold. Moreover, the Kd in assay [4] came to 290 nM; in assay [5], 390 nM; in assay [6], 260 nM.
In assay [1], LARG (natural protein) had a percent of the GEF of the lysate found in the MIIB IP of 1%.
Consider FGD1 (natural protein), for which the percent of the GEF of the lysate found in the MIIB IP in assay [1] worked out at 8.1%.
